In article PMC7748142:

Molecular target: T1, peroxiredoxin 1 (PRDX1), murine lung fibroblasts (mouse (endogenous in MLFs)), P35700
T1 chain: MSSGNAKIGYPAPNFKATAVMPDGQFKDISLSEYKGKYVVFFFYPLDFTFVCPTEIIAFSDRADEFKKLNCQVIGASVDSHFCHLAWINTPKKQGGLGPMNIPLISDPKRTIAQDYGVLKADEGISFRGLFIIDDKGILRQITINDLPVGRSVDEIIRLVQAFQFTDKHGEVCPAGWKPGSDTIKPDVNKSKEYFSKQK
Assay: non-reducing SDS-PAGE with Western blot; A549 or MLF cells treated with Auranofin (A549: 10 uM, MLF: 2 uM) alone or with KU55933 (10 uM, 1 h pre-treatment); lysed in CHAPS buffer with 100 mM NEM; boiled in non-reducing sample buffer; disulfide-linked dimers
Conditions: remark: other sources report otherwise

- stoichiometry N: 2
B1: peroxiredoxin 1 (PRDX1), murine lung fibroblasts, P35700 1-199 (enzyme)
chain: MSSGNAKIGYPAPNFKATAVMPDGQFKDISLSEYKGKYVVFFFYPLDFTFVCPTEIIAFSDRADEFKKLNCQVIGASVDSHFCHLAWINTPKKQGGLGPMNIPLISDPKRTIAQDYGVLKADEGISFRGLFIIDDKGILRQITINDLPVGRSVDEIIRLVQAFQFTDKHGEVCPAGWKPGSDTIKPDVNKSKEYFSKQK
